Source: paper PMC12593833

Tests used:
[1] = biological target: synthetic D-streptavidin (mirror-image streptavidin) (S. avidinii); experiment: SEC; analytical SEC of the folded proteins, with molecular weight standards
[2] = biological target: synthetic L-streptavidin (S. avidinii); experiment: as above

stoichiometry N [1] | stoichiometry N [2] | Substance
4 | – | synthetic D-streptavidin (mirror-image streptavidin)
– | 4 | synthetic L-streptavidin (natural protein)
